Experimental data: the RNAGym collection of RNA variant scans (doi:10.1073/pnas.2313332121)

B1: TPR t1 (parent)
chain: GACCAAUCUGCCCUCAGAGCUCGAGAACAUCUUCGGAUGCAGAGGAGGCAGGCUUCGGUGGCGCGAUAGCGCCAACGUCCUCAACCUCCAAUGCAUCCCACCACAUGAUGAUGCCUGAAGAGCCUUGGUUUUUUG

Variants of: B1
Assay: polymerase ribozyme fitness, log enrichment relative to wild type (log ratio); higher = more active; in vitro selection for triplet polymerase activity
Outline: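 Mutant libraries of each subunit of a heterodimeric triplet polymerase ribozyme were built by PCR and transcribed. Each library went through one round of in vitro selection in triplicate: annealing with biotinylated primer, partner subunit and triplets, frozen incubation at −7 °C, gel excision of extended constructs, streptavidin-bead capture and RT-PCR. Input and output libraries were Illumina-sequenced; only genotypes with ≥10 input reads and ≥1 read per output were kept. Fitness is log2(genotype enrichment/wild-type enrichment), using inverse-variance-weighted replicate averages.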

Variant | polymerase ribozyme fitness (log ratio)
C12A A26U | -3.83
A29U U130G | -2.07
C49U G93A G110A | -2.9
C20U G61C C82A C124G | -1.38
C20A C62U | -2.95
C34A G36C G45C U112G | -5.74
G45U U129G | -2.58
G44A A103U | -5.44
A5U C20A G69U C98G C123G | -2.75
U109C C115A | -3.11
A74G G120C | 0.921
A83U A95G C104G A105C C115A G117U | -5.76
C82A U129A | -2.69
G19C C94A U130C | -2.66
G60A C97G G120C | -4.18
C20A A26G U33A | -5.24
C11A C40A A74G G135U | -2.09
A2G C70A C123U | -0.0496
A6U G48A C123A | 0.913
A41U C72U C88U | -1.2
G17C U78C C89A U96A | -4.94

Variant | polymerase ribozyme fitness (log ratio)
A83C A95U U116C | -1.65
C49A C56U A121U | 1.74
C22U C89U | -3.61
G57A G69U C97A U132C | -3.61
A46U C62U C94G U131G | -4.7
G57C C73U C101A A111C | -0.202
G71C G135C | -1.39
C8U C101U | 0.244
G57U A74U C79U | -0.181
C72G G135A | -0.341
A18U G110U | -3.52
G63U G113A | -1.99
C11A C40A G52A U92A | -3.14
C3U G58C | -0.467
C34U G77A A103C G117U G127C U130A | -7.38
U21C C49A A84U C88G C101G U133A | -2
G57U G61C G135A | -2.69
C12G U30C C70A | -4.46
C22U U55G C123A | -4.35
U59G A66C C101G A121C U132C | -2.35
A50C A111C | 0.0167

Variant | polymerase ribozyme fitness (log ratio)
C12A C34U | -4.77
C22U C56U | -3.77
C114U G117U | -5.77
G44C C56U | -0.735
C72G C94G | -1.73
A24G U112A | -0.197
C88A G93U G120U | -3.17
G128A U133A | -3.85
A27C A68G G71U | -6.32
C40U A41C G48U C56U G58C G63U | -3.13
A29G C53G U87C G113C | -3.02
C4G C72A C85G C104U | -2.16
G61U U96G | -0.881
C8G C12A G63C | 0.17
A37U G39U G69A | -4.43
G63A C89A | -3.19
G10U C124U | 1.37
A100C C104U A121G | 1.96
C8U C12U C88G | -0.238
G42A A103U U112A | -7.34
C123U U134C | 1.29

Variant | polymerase ribozyme fitness (log ratio)
A50U G60A C70U G93A | -3.24
G69U U109A | -2.79
C15G G17U C86A | -5.4
G44U U131A | -1.33
C13U G19C C70U | -2.89
A6C G58C G60U A95C | -1.05
C12A U96A | -1.84
U9G C11G C94U A111C | -4.33
C3U C12A C13A C49U C72G C99U U116C | -6.31
G60U G93A A105C | -3.53
C15G A16U G61U G122U C123U | -2.55
A37G A43U G44U C72U U87C C104U U129G | -2.31
U9G C86G A119U | 0.167
A16U C53G G93C C123A | -1.64
G60A G63C G110A G135C | -6.16
A43U U54A A66U U112A | -3.74
C8G A100U C115U | -2.51
U78C A105G U112G | -3.99
G47C G63U C102A U112C G113U | -7.27
C20G C64A C98U A105C C114U U116A | -6.79
